Experiment: label from the status in PepcDB records

Which protein production does the source give for “MRSPYLIGVFLAAGKSRRMGQNKLALPLKGENIGSLSLKTALSSRLDHVLVVERTEHASLEWIGAPYHAPPFQKRWSLHVCQDAEKGQGHSVSSGVRKAESMGADGIVILLADQPQLSVDHLNALVALAPESFAVSSFLGAFTPPIYFSSTCFPYVKGLKGDEGARRLLKSGQLGAGAVLEAKDSGELDDIDTPRGILEHHHHHH” here?
Its protein production is “not failed”.

With “MRSRDFSSWIWGDALSLLQQADRLHRQLLRTGPAQAPCWEPPVDMIETESAVLIYVALPGVAAGDVAVRFDPDGISISGVRPLPALRNARIHGLEIPYGRFQRRIRLPLHALEPEAPTLADGCLTLTLKKLREAP” as the sequence, how does the protein production read?
The protein production was “failed”.

With “MRSRPTEGNLLVSIGIPFLNPGPYLDLAVRSVFAQTYLNWELILVDDGSTDGSYERAVAIQDPRVRVLRDGQNKGLPARLNEIVRLAKGELVARMDADDAMHPLRLEKQVGFLQANPELDGVTTGAYLIDAEDRPIALLPGRQPSAQEVLARGGFLHPSLLARKSWFEAHPYSLDYPRAEDRELFVRTFKTSRLHVLSEPLYFYRWFGVPRGKTLRIGYRSERKVMWKYGPNLVGWGPSLRLIALSFGKELLTWFLEWTHLEKGFQTRRAFQPLLEMDQREALRTLKVIRETCVPGWDLEHHHHHH” as the sequence, how does the protein production read?
The protein production was “failed”.

For “MRSVTVSGFLTLIISGIMLIPSPAYSKIDTTLNTSSFIGAYLAGRVANHENKTDLAIKYFKKALTYKPENIETQVEMLEAMLFSGAFKEAVKQAQKLKKQGITNPFVSLTLSIESLIKKDYNKAKILLQLKTLPAANNPIPELIGAWATFGSGYQSQAITHLQKIQGPAWYKLFINYHLALMCDLAGHKQNAQKYFTQALNTQQATLIAPNTYEHIIIAYASFQLRSKMRIQALQTLKHGEQMLPGREIFKNIREKIEKGASLERLIKTPQQGTGEVLYNFGTTLNHKNSQRIARIFTQLSLILSPENDAIMFHLANISAKVNDLNQAIKLYRSLPQSSPYYRVGQLQLAFILANNNNHSEAIKLLTSLKKKNPNDRHILITLSALYMQDNKFTEATKTLDRAIAQITNFQQDDWKLFYQRGIAFERLQQWSKAENDLRKALDFFPNQPQVLNYLGYSLVERGEKLEESLHMLQKASTLQPQNSHILDSLGWAYYKLKQYNQAVQILGNAVRLQPEDPTLNDHLGDVYWRVGRKREAMFQWNHAIDGEAKNSKEIQEKLKFGLQ”, which protein production is on record?
Its protein production is “failed”.

For “MRSVVSFNEGWSFHEGFGQRLLETFDTAKSVSLPHTAVELPFSYFDETSYQRAFTYQKVLRWLPEFEGREVSLVFDAAMADSVVYLNGEEIIAHKDGYTPFEARLTGKLVKGENLVTVKIDGSENPDIPPFGGRIDYLTYAGIYRDVWLKVTDPVSIRNLKIETTDVLRPEKSATIRVDIANPEGRSFSATVTATLKQADGTVVATAATETIGSRTTLSFGGLTGIALWDITDPKLYDVTVELRTEHGSDRISTRFGFRTAEFTPEGFLLNGKPLKLRGLNRHQAFPYVGYAAGRSAQERDADIMKTVLKCNIVRTSHYPQSKWFLDRCDAIGLLVFEEIPGWQHIGDADWQQESIKNVRRMIERDWNHPSIIIWGVRINESQDDHDFYAETNRLARELDSTRQTGGVRYLTESELLEDVYTMNDFILGNEELPGANRPRTALRAQQENTGLSHKVPYLITEFNGHMHPTKIYDQEQRQAEHVRRHLEVLNAAYGDPDISGAIGWCMFDYNTHKDFGSGDRICYHGVMDMFREPKFAAYAYISQCDPSEEIVMKPVTFWARGERNIGGVLPLIILTNCDEVELQYGALSKRIGPDRENYPHLPHPPVVLDHRHFTADELGTWGLEWIDGTFTGYIGGEPVASLTLAADPLPTTLEVVADSSTLRARERDSTRVIIRALDQRGQRLPFMNDSISLKVHGPARIVGPTNVPLQGGTAGFWLEATGFTGEITVEAISTRFAPVTLGVTAA”, which protein production is on record?
The protein production was “failed”.

For “MRTALLEVGLEELPASEFHSILKQLEEKSAELLKAYRVSSGSVEVFVGSRRFGVILKNLPERQEDFTEEKKGPPLNVAYDENGKPTRALEGFLRNNNASLENVVHREGYVYLSRVVEGKPVEEVLPDLFRDLVLGLNFRKPMRWGSGEHEYIRPVHWIVAMVDGRVLDLEIFGLRSSRISYGKRYHAGSIEIPDSERYYESLKKGFVISSHLERKKFVLEQIDEFEKRSSMKIERDEELIEEIVAITEYPRIVVGQFDRKYLELPEEIIVTAVKHHQRSFIAHKGTLTNTFVAFQDGPQPPENVVKGYERVINARLEDARYYFQKDLETPLEKMNEKLKEIVFQEKLGTLYDKVERIKKISQRLCEDLKLPGSFTQKVLEAASICKADIASKVVYEFPELQGVMGRIYALREGINEEIATAIEDHYSEEPQTVIGSILGIADRIDTIVGNFAIGNVPTSSKDPYGLKSKADTIFRIIRKNEWDISLEELLTFASSLVGYRLSEELETFFAGRFYQFLINELGISFDVARAVNHLWKKPLR”, which protein production is on record?
Its protein production is “failed”.

For “MRTALLQNLFSLFPFDLHGDCDVPPARDGIRVSCIINFYGRLNVLAGILWSLAQQDFPRSAFEVILVEDRGGSDEGRALAEEFSSRLPIVYAPLDKQYGLMGYSRNFGLERSRGEFILFLDDDTIILQDDFLKTMVAYFDAQPGVSAIMPHGEASFAFVDDRYDFHDPFFMTSRCTAYRRTVLASLGGFMSSFIGQEDVEFVIRFHAAGNRCAAVPQLAYRHPPLYVTNLGKPMAVGSSFYGIRKRYPLVTWLLAVVNCSRHLPLVLAPSRKYREMGRFGLGFLWGVLTAPFRSGSLNYRLEHHHHHH”, which protein production is on record?
The protein production was “failed”.

With “MRTAVIIPFYQREAGILSRALDSVDGQILPEGHSLTVFVIDDESPVSARSEVEGRQGKVPVRLIAQKNGGPGAARNAGLDAVAAEGFDHVAFLDSDDIWQPTHLADALDLLARGYDFHFCDHQRTDDDITYFERTPALRRMREERHAGVTVLDAEAPILAFDQPSIMAASVDTYLSQTSTVVVRQSFVETLRFDPRLRNAGEDQLFWLSLIAAGARTVVSWKMNVLCGRGVNVYFDAFDWKSTKVVDRTGYMLMFFHTVGRRLSLTASDRRTVADRIRRYRRAYSYLFLRALLQGRVPTLSLTWKLAALDPGLVPAMPLRFLAVLPNREAESLQWLEHHHHHH” as the sequence, how does the protein production read?
Its protein production is “failed”.

With “MRTDNINHWDVVAETYSEENNRGRNFHSQIYLAAVNELLGNVKGKCVLDAGCGDGFFSLELAQKGALVTAVDSSEAMLSIAKHKHVHDNLQYYNMDLTRELTFEDKFFDIVVANMLLMDIPEIELLIFEIARVLKKPGTFIFSITHPCFFLSDWEENENNIKTYKKIGNYLEERVEELNFWGKTLHYHRPLSRYMEAVEKAGMYVSSLREPVPPRELIELYPEQEYHCRIPSFVVIMAQMV” as the sequence, how does the protein production read?
The protein production was “failed”.

With “MRTIIALETHDVRFPTSRELDGSDAMNPDPDYSAAYVVLRTDGAEDLAGYGLVFTIGRGNDVQTAAVAALAEHVVGLSVDKVIADLGAFARRLTNDSQLRWLGPEKGVMHMAIGAVINAAWDLAARAANKPLWRFIAELTPEQLVDTIDFRYLSDALTRDEALAILRDAQPQRAARTATLIEQGYPAYTTSPGWLGYSDEKLVRLAKEAVADGFRTIKLKVGANVQDDIRRCRLARAAIGPDIAMAVDANQRWDVGPAIDWMRQLAEFDIAWIEEPTSPDDVLGHAAIRQGITPVPVSTGEHTQNRVVFKQLLQAGAVDLIQIDAARVGGVNENLAILLLAAKFGVRVFPHAGGVGLCELVQHLAMADFVAITGKMEDRAIEFVDHLHQHFLDPVRIQHGRYLAPEVPGFSAEMHPASIAEFSYPDGRFWVEDLAA” as the sequence, how does the protein production read?
The protein production was “not failed”.

For “MRTISFFNNKGGVGKTTLSTNVAHYFALQGKRVLYVDCDPQCNATQLMLTEEQTESIYLDGLNDEVAERNSLAKTVYAIFVPLREGESQIAAEITPMRSERFGVDVLPGHPALSQIEDLMSDSWQSALGRQTGPFRRIHWAGQLAHAMERDDRYDVIFFDVGPSLGPFNRTVLLGCDAFVTPTATDLFSFHAFGNLARWFDAWVTQ”, which protein production is on record?
The protein production was “failed”.

For “MRTIWLVFIANFKRAYSNKKKFFINLLVPVAAIILAIVVNYVSSPSLNIGVNEKIKSKGGDRIVKMLKHTRGINAKVCHGELMKTEVILGKYDAVVTIKRKLGKNSFNNMSKYFEFYNVRDKKTNEDMKKLIKAYLVQNKTLNMERIVKDEQIGGLSKSERIIAFLATVLLITSVVNGAVIIRDREENTYYRYMYSPNSKFEYIFGNVIYNYIFSYIQLFIANSLMAIFGIYIGISFLKMLSYGLILTLVMTTFGTFIVCIFNKELYANMFSAAISLILSLVGGTFINYKIMPEGLRRISDVTPNRWIIKSVQYMQNGRFGSINPMMVLIAFSIMFSLAAVLVSKFHKVQFK”, which protein production is on record?
The protein production was “failed”.

For “MRTLILAAALALAPLSAAAQDRAQTLADIKAEIAALQGQFNDLKRELVSTGAATSGAAGGSALQRMDAMEAAIAQVTAKAESLELKINRVVSDGSNRVGDLEFRVCELEEGCDIGAIGETKPLGGEASAAPAPTPAPAPAADPAGTFAVNEKADFDRAQEVLGQGDFRTAADLFKTFAETYTGGQLTYEAHYLRGEALSRLGETANAARAYLESFSGDPDGPRAPEALLKLGRALGDLRQTPEACVTLAEVGTRFPGSPSAAEAATTMQGLGCS”, which protein production is on record?
Its protein production is “failed”.

Which protein production does the source give for “MRTPCSQHRRDRPSAIGSQLPDADTLDTRQPPLQEIPISSFADKTFTAPAQIRNFCIIAHIDHGKSTLADRMLQLTGVVDERSMRAQYLDRMDIERERGITIKAQNVRLPWRVDKTDYVLHLIDTPGHVDFTYEVSRALEACEGAVLLVDAAQGIEAQTLANLYLALDRDLHIIPVLNKIDLPAADPDRYAAEMAHIIGCEPAEVLRVSGKTGEGVSDLLDEVVRQVPPPQGDAEAPTRAMIFDSVYDIYRGVVTYVRVVDGKISPRERIMMMSTGATHELLEVGIVSPEPKPCEGLGVGEVGYLITGVKDVRQSKVGDTVTSLSRARGAAAEALTGYREPKPMVYSGLYPVDGSDYPNLRDALDKLQLNDAALTYEPETSVALGFGFRCGFLGLLHMEITRERLEREFGLDLISTSPNVVYRVHKDDGTEIRVTNPSDWPEGKIRTVYEPVVKTTIIAPSEFIGTIMELCQSRRGELGGMDYLSPERVELRYTMPLGEIIFDFFDALKSRTRGYASLDYEEAGEQEAALVKVDILLQGEAVDAFSAIVHKDTAYAYGNKMTTKLKELIPRQQFEVPVQAAIGSKIIARENIRAIRKDVLSKCYGGDITRKRKLLEKQKEGKKRMKTIGRVEVPQEAFVAALSTDAAGDKGKK” here?
Its protein production is “failed”.

With “MRVDELRVDERIKSTLKERGIESFYPPQAEALKSGILEGKNALISIPTASGKTLIAEIAMVHRILTQGGKAVYIVPLKALAEEKFQEFQDWEKIGLRVAMATGDYDSKDEWLGKYDIIIATAEKFDSLLRHGSSWIKDVKILVADEIHLIGSRDRGATLEVILAHMLGKAQIIGLSATIGNPEELAEWLNAELIVSDWRPVKLRRGVFYQGFVTWEDGSIDRFSSWEELVYDAIRKKKGALIFVNMRRKAERVALELSKKVKSLLTKPEIRALNELADSLEENPTNEKLAKAIRGGVAFHHAGLGRDERVLVEENFRKGIIKAVVATPTLSAGINTPAFRVIIRDIWRYSDFGMERIPIIEVHQMLGRAGRPKYDEVGEGIIVSTSDDPREVMNHYIFGKPEKLFSQLSNESNLRSQVLALIATFGYSTVEEILKFISNTFYAYQRKDTYSLEEKIRNILYFLLENEFIEISLEDKIRPLSLGIRTAKLYIDPYTAKMFKDKMEEVVKDPNPIGIFHLISLTPDITPFNYSKREFERLEEEYYEFKDRLYFDDPYISGYDPYLERKFFRAFKTALVLLAWINEVPEGEIVEKYSVEPGDIYRIVETAEWLVYSLKEIAKVLGAYEIVDYLETLRVRVKYGIREELIPLMQLPLVGRRRARALYNSGFRSIEDISQARPEELLKIEGIGVKTVEAIFKFLGKNVKISEKPRKSTLDYFLKS” as the sequence, how does the protein production read?
Its protein production is “failed”.

For “MRVHPDRGRTNLPPFKLRSSRSTYKALKEKANGDALTNAGDRSIFVPDGICQGKAAERCQKTRQRGVRSVKNLIVKIAAAALLVLAPAIAQAAEGYSTANVNMRAGPSTRYPAVAVIPAGSSVEIRGCLSNVNWCDVEFYGGRGWVSGQYVQAVYEQRRVYVGPQYYRPLGIPMVTFSVGNYWDRYYRGRDFYRERDRWSRGPDYYYRDRDYRDRDYRREYRDRDYQVREYRDRDRDRRDDARREERRREVRRDDDNRSSDFRDLPQFRGGKADTYNHPDPRASPFVCRPGDPSCGD”, which protein production is on record?
The protein production was “failed”.
